We go through 41 sequences from the nanobody polyreactivity screen of Harvey et al. (2022).

The data set in a line: yeast display, Sf9 membrane polyspecificity reagent, FACS + sequencing; frameworks hold sequencing errors. The gist of the method: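 Using colony PCR, genes from sorted yeast display clones were amplified, then sequenced on MiSeq at 2 × 250 and filtered by CDR length. The clones had been stained with 10% biotinylated, detergent-solubilized Sf9 membrane reagent for 1 hour at 4 °C and sorted by FACS into low and high (top ~1%) gates on anti-HA and streptavidin fluorescence. Polyreactivity labels come from the gate of origin.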
In the case of “QVQLVESGGGLVQAGGSLRLSCAASGFIFYLYAMGWYRQAPGKERELVAAIDSGDDTDYADSVKGRFTISRDNAKNTVYLQMNSLKPEDTAVYYCAAGAYWPWGEDYWGQGTQVTVSS”, the “polyreactivity (PSR sort gate)” value is listed as “high polyreactivity”.
Next, “QVQLVESGGGLVQAGGSLRLSCAASGIIFDHYAMGWYRKAPGKERELVAAITSGGRTYYADSVKGRFTISRDNAKKTVYLQMNSLKPEDTAVYYCNARFRSSARLAYYYWGQGTQVTVSS”: “high polyreactivity”; “QVQLVESGGGLVQAGGSLRLSCAASGSTFRGNAMGWYRQAPGKERELVAAISESGTDTYYADSVKGRFTISRDNAKKTVYLLMNSLKPEDTAVYYCAKDYSGTYYAQYNYWGQGTQVTVSS”: “low polyreactivity”; “QVQLVESGGGLVQAGGSLRLSCAASGFTFVNYVMGWYRQAPGKERELVAAISRSGGSTYYADSVKGRFTISRDNAKNTVYLQMNSLIPEDTAVYYCAARWFYRAGFNYWGQGTQVTVSS”: “high polyreactivity”.
Next, “QVQLVESGGGLVQAGGSLRLSCAASGSIFVYYAMGWYRQAPGKERELVAAISSTGGRTYYADSVKGRFTISRDNAKNTVYLQMNSLKPEDTAVYYCNAARTGYRYYDWFYDYDYWGQGTQVTVSS”: “low polyreactivity”; “QVQLVESGGGLVQAGGSLRLSCAASGNIFAWYAMGWYRQAPGKERELVADISSRGGSTYYADSVKGRFTISRDNAKNTVYLQMNRLKPEDTAVYYCAAVWYWTQDYDYWGQGTQVTVSS”: “low polyreactivity”.
Next, “QVQLVESGGGLVQAGGSLRLSCAASGFTFDSNAMGWYRQAPGKERELVAAISTGGSTYYADSVKGRFTISRDNAKNTVYLQMNSLKPEDTAVYYCARDPPYPDTWYGYWGQGTQVTVSS”: “low polyreactivity”; “QVQLVESGGGLVQAGGSLRLSCAASGITFSRYAMGWYRQAPGKERELVAAITWDGGRTYYADSVKGRFTISRDNAKNTVYLQMNSLKPEDTAVYYCAAGSAWWYYWGQGTQVTVSS”: “high polyreactivity”; “QVQLVESGGGLVQAGGSLRLSCAASGFTFHKNAMGWYRQAPGKERELVAAITYRGGSTSYADSVKGRFTISRDNAKNTFYLQMNSLKPEDTAVYYCAAELRPYITYDGPRKKFYYWGQGTQVTVSS”: “high polyreactivity”.
Turning to “QVQLVESGGGLVQAGGSLRLSCAASGRIFRHKTLGWYRQAPGKEREMVAGITASGGDTYYADSVKGRFTISRDNAKNTVYLQMNSLKPEDTAVYYCATSQYGYRSWPGLYYWGQGTQVTVSS”, the “polyreactivity (PSR sort gate)” value was “low polyreactivity”.
Next, “QVQLVESGGGLVQAGGSLRLSCAASGSIFHYYAMGWYRQAPGKERELVAAISWSGGRTNYADSVKGRFTISRDNAKNTVYLQMNSLKPEDTAVYYCAAAERSYSGGGKIGKYYWGQGTQVTVSS”: “high polyreactivity”; “QVQLVESGGGLVQAGGSLRLSCAASGITLLYYAMGWYRQAPGKERELVAAISRRGGSTYYADSVKGRFTISRDNAKNTVYLQMNSLKPEDTAVYYCAAYSPYGGYHYLYDYWGQGTEVTVSS”: “high polyreactivity”; “QVQLVESGGGLVQAGGSLRLSCAASGFIIQGNAMGWYRQAPGKERELVAAISSCVSTYYADSVKGRFTISRDNAKNTVYLQMNSLKPEDTAVYYCNAGFPLSLWLGDYWGQGTHVTVSS”: “low polyreactivity”.
Next, “QVQLVESGGGLVQAGASLRLSRAASGLIFYRYAMGLYRPAPGKERELVAAITSGGSTYYADSVKGRFTISRDNAKNTVYLQMNSLKPEDTAVYYCAAFYVPTYYYSPYGYWGQGTQVTVSS”: “high polyreactivity”; “QVQLVESGGGLVQAGGSLRLRCAASGSIFNSYAMGWYIQAPGKERELVAAISIRGTRTYYADSVKGRFTISRDNAKNTVYLQMNSLKPEDTAVYYCAADASYTEGMDYWGQGTQVTVLS”: “high polyreactivity”.
The result for “QVQLVESGGALVQAGGSLRLSSAASGSIFGSNGIGSYRPAPGKERELVAAITRSGGSTRYADSVKGRFTISRDNAKNTVYLQMNSLKPEDTAVYYCAKYDTSTGYDYWGQGTQVTVSS” reads “high polyreactivity”; that for “QVQLVESGGGLVQAGGSLRLSCAASGSTIDWYGMGWYRQAPGKERELVAAINFSDGSTYYADSVKGRFTISRDNAKNTVYLQMNSLKPEDTAVYYCAAYTPSYGGRDYWGQGTQVTVSS”, “low polyreactivity”.
As to “QVQLVESGGRLVQSGGSLRLSCAASGFIFSYNAMGLYRQAPGKERELVASIRTRGGSTYYADSVKGRFTISRDNAKNSVYLQMNSLKPEDTAVYYCAARPFQRRYDYWGQGTQVTVST”, the “polyreactivity (PSR sort gate)” value was “low polyreactivity”.
The result for “QVQLVESGGGLVQAGGSLRLSCAASGFTFSSYAMGWYRQAPGKERELVAAISTRGGSTYYADSVKGRFTISRDNAKNTVYLQMNSLKPEDTAVYYCATGGRGGRRYEYWGQGTQVTVSS” reads “low polyreactivity”.
The result for “QVQLVESGGGLVQAGGSLRLSCAASGSIFKPYAMGWYRQAPGKERELVAVISWRGGSTYYADSVKGRFTISRDYAKNTVYFQMNSLKPEDTAVYYCAARRYRYFDGTVPLDYWGQGTQVSVSS” reads “high polyreactivity”; that for “QVQLVESGGGLVQAGGSLRLSCAASGFIFGGYAMGWYRPAPGKERELVAAISSSGGSTYYADSVKGRFTISRDNAKNTVYLQMNSLKPEDTAVYYCAARIQSVSSGRWFDYWGQGTQVTVSS”, “high polyreactivity”; that for “QVQLVESGGGLVQAGGSLRLSCAASGRIFGAYAMGWYRQAPGKEREFVAAITWRGGSTYYADSVKGRFTISRDNAKNTVYLQMNSLKPEDTAVYYCAADQFTGSVWAYYYWGQGTQVTVSS”, “high polyreactivity”.
Next, “QVQLVESGGGLVQAGGSLRLSCAASGRIFIQYGMVWYRQAPGKERELVAAIRSGDSTNYADSVKGRFTISRDNAKNTVYLQMNSLKPEDTSVYYCARDRPGDYAGYDYWGQGTQVTVSS”: “low polyreactivity”.
As to “QVQLVESGGGLVQAGGSLRLSCAASGIIFYGNVMGWYRQAPGKERELVAAITSTGSTSYADSVKGRFTMSRDNGKNTVYLQMNSLKPEDTAVYYCAADNAVWEYDYWGQGTQVTVSS”, the “polyreactivity (PSR sort gate)” value was “low polyreactivity”.
Take “QVQLVESGGGLVQAGGSLRLSCAASGLIFLQYVMGWSRQAPGKEREFVATITDDGDTTYYADSVKGRFTISRDNAKNTVYLQMNSLKPEDTAVYYCAADAEGSASKYDYWGQGTQVTVSS”: the “polyreactivity (PSR sort gate)” value was “low polyreactivity”.
Next, “QVQLVESGGGLVQAGGSLRLSCAASGSTFKYNAMGWYRQAPGKERELDAAISSSGGSTSYADSVKGRFTISRDNAKNTVYLQMNSLKPEDTAVYYCAADSYPAYLGFVGFDYWGQGSQVTVSS”: “low polyreactivity”; “QVQLVESGGGLVQAGGSLRLSCAASGIILYYYAMGWYRQAPGKERELVAAINWSGGSTSYADSVKGRFTISRDNAKNTVYLQMNSLKPEDTAVYYCAARLGSWHYQVWNYKYEYWGQGTQVTVSS”: “high polyreactivity”; “QVQLVESGGGLVQAGGSLRLSCAASGRISFRIRWDGIDRRLGKKGSWLPLLTNTGSTNYADSVKGRFTISRDNAKNTVYLQMNSLKPEDTAVYYCNADQTGGSSYPAYFEYDYWGQGTQVTVSS”: “low polyreactivity”.
Next, “QVQLVESGGGLVQAGGSLRLSCAASGSTFVRYAMGWYRQAPGKERELVAAIRWSSGSTYYADSVKGRFTISRDNAKNTVYLQMNSLKPEDTAVYYCAKRQYLYTSKYDYWGQGTQVTVSS”: “high polyreactivity”; “QVQLVESGGGLVQAGGSLRLSCDASGRILHYYAMGWYRQAPGKERELVATISISGGNTRYADSVKGRFTISRDNAKNTVYLQMNSLKPEDTAVYYCDARPYAGFDNWGQGTQVTVSS”: “high polyreactivity”.
The result for “QVQLVESGGGLVQAGGSLRLSCAASGSIIPRNVMGWYRQAPGKERDLVAAISSSGGSTSYADSVKGRFTISRDNAKNTVYLQMNSLKPEDTAVYYCNAPWQRYSAPWGQGYNYWGQGTQVTVSS” reads “high polyreactivity”; that for “QVQLVESGGGLVQAGGSLRLSCAASGGIFDRYAMGWKRQAPGKERELVAVISGSVNTYADSVKGRFTISRDNAKNTGYLRMNSLKPEDTAVYYCATQFEGPSGFNYWGQGTQVTVSS”, “low polyreactivity”; that for “QVQLVESGGGLVQAGGSLRLSCAASGSTFWIYAMGWYRQAPGKERELVAAISWSTGRTYYADSVKGRFTISRDNAKNTVYLQMNSLKPEDTAVYYCNAGPQHNTLKLFYYWGQGTQVTVSS”, “low polyreactivity”.
As to “QVQLVESGGGLVQAGGSLRLSCAASGSTFASYAMGWNRQAPGKEREFVAAISRSGGSTYYADSVKWRFTISRDNAKNTVYLQMNSLKPEDTAVYYCAARSPSADEYYFWGQGTQVTVSS”, the “polyreactivity (PSR sort gate)” value is given as “low polyreactivity”.
As to “QVQLVESGGGLVQAGSTLRLSCAASGRIFDLYTMGWYRQAPGKERELVAAIRWSDGSTYYADSVKGRFTISRDYAKNTVYLQMNSLKPEDTAVYYCAADTRTSYYNDDYDYWGQGTQVTVSS”, the “polyreactivity (PSR sort gate)” value is “low polyreactivity”.
On to “QVQLVESGGGLVQAGGSLRLSCAASGLIFVQYVMGWYRQAPGKERELVAAITEDGNTYYADSVKGRFTISRDNAKNTVYLQMNSLKPEDTAVYYCNAVLRSYDFWTGYGYWGQGTQVTVSS”, for which the “polyreactivity (PSR sort gate)” value was “low polyreactivity”.
Next, “QVQLVESGGGLVQAGGSLRLSCAAYGGTFPAYTMGWYRQAPGKERELVAAITWSGGNTYYADSVKGRFTISRDNAKNTVYLQMNSLKPQDTAVYYCAAEYWQYQWSVRIDYEYWGQGTQVNVSS”: “high polyreactivity”; “QVQLVESGGGLVQAGGSLRLSCAASGSTFRRNAMGWYRQAPGKERELVARISYRGGSTYYADSVKGRFTISRDNAKNTVYLQMNSLKPEDTAVYYCAARVYGVPEYDYWGQGTQVTVSS”: “low polyreactivity”; “QVQLVESGGGLVQAGGSLPLSCAASGSTFSYYAMGWYRQAPGKERELVAAITSGGSTYYADSVKGRFTISRDNAKNTVYLQMNSLKPEDTAVYYCNAEPYTSSGGYRAYDFDYWGQGTQVTVSS”: “low polyreactivity”.
Next, “QVQLVESGGGLVQAGGSLRLSCAASGRTFTGNAMGCYRQAPGKERELVAAISTSGTRTSYADSVKGRFTISRDNAKNTVYLQMNSLKPEDTAVYYCAALRKSLYRTYTYDYWGQGTQVTVSS”: “high polyreactivity”.
Next, “QDQLVESGGGLVQAGGSLRLSCAASGRTFAYKVMGWYRQAPGNERELVAANSRGGGRTYYADSVKGRFTISRDNAKNTVYLQMNSLKPEDTAVYYCNAASSGLSGRLTSIINDYWGQGTQVTVSS”: “high polyreactivity”.
